Measurements from patent US6815532B2, “ATR-2 cell cycle checkpoint” (ICOS Corporation, priority 1999, dated 2004).

How the values were obtained:
Format in all cases: biochemical
histone H1 = assay: ATR-2 kinase assay with substrate histone H1
myelin basic protein = assay: ATR-2 kinase assay with exogenous substrate myelin basic protein; details: immunoprecipitate from transfected 293T cells, 30° C. for 30 min, 32P-ATP
Procedure: (§1) After 48 hr, cells were harvested and lysed in 0.5 ml lysis buffer (Example 6), and the lysates were precleared by incubation with 50 μl protein A beads for 2 hr at 4° C. The supernatant was immunoprecipitated with 6 μg anti-M2 antibody for one hr at 4° C. and the sample was divided into five aliquots. One hundred μl of the mixture was combined with 10 μl protein A beads for three hr at 4° C., after which the beads were washed twice with lysis buffer and three times in kinase buffer containing 10 mM HEPES, pH 7.4, 10 mM MnCl2, 50 mM NaCl, 10 mM MgCl2, and 5 mM DTT.
(§2) In the kinase assay, 10 μl protein A beads was mixed with 10 μl PKA and PKC inhibitors from a p79^S6 kinase assay kit (Upstate Biotechnology Inc., Lake Placid, N.Y.) and 10 μl ATP mixture: containing kinase buffer (above) with 10 mM ATP, 3 μCi ^32P-ATP, plus or minus 6 μl myelin basic protein as substrate. Reactions were incubated at 30° C. for 30 min and 20 μl of the reaction mixture was spotted onto P81 paper. The P81 paper was washed three times in 150 mM phosphoric acid and dried, and Cerenkov radiation measured.

Atr-2 protein = target: T1, Atr-2 protein (Homo sapiens, UniProt Q96Q15); assay: ATR-2 kinase assay, autophosphorylation (immunoprecipitated FLAG-tagged Atr-2 fragment from 293T cells, 32P-ATP, P81 paper); details: immunoprecipitate from transfected 293T cells, 30° C. for 30 min
T1 construct: a region containing the putative kinase domain was subcloned into the mammalian expression vector, pCIneo; made in house; host or cells: 293T cells (transient transfection, anti-FLAG M2 immunoprecipitate on protein A beads)
Procedure: as §1, §2

PHAS-1 = assay: ATR-2 kinase assay with substrate PHAS-1

B1: 73 kDa Atr-2 truncated protein: FLAG-tagged truncated human Atr-2 containing the putative kinase domain, expressed from pCIneoFLAGATR2 in 293T cells (protein)
chain: MLVAELRRVTVLWDELWLGVLLQQHMYVLRRIQQLEDEVKRVQNNNTLRKEEKIAIMREKHTALMKPIVFALEHVRSITAAPAETPHEKWFQDNYGDAIENALEKLKTPLNPAKPGSSWIPFKEIMLSLQQRAQKRASYILRLEEISPWLAAMTNTEIALPGEVSARDTVTIHSVGGTITILPTKTKPKKLLFLGSDGKSYPYLFKGLEDLHLDERIMQFLSIVNTMFATINRQETPRFHARHYSVTPLGTRSGLIQWVDGATPLFGLYKRWQQREAALQAQKAQDSYQTPQNPGIVPRPSELYYSKIGPALKTVGLSLDVSRRDWPLHVMKAVLEELMEATPPNLLAKELWSSCTTPDEWWRVTQSYARSTAVMSMVGYIIGLGDRHLDNVLIDMTTGEVVHIDYNVCFEKGKSLRVPEKVPFRMTQNIETALGVTGVEGVFRLSCEQVLHIMRRGRETLLTLLEAFVYDPLVDWTAGGEAGFAGAVYGGGGQQAESKQSKREMEREITRSLFSSRVAEIKVNWFKNRDEMLVVLPKLDGSLDEYLSLQEQLTDVEKLQGKLLEEIEFLEGAEGVDHPSHTLQHRYSEHTQLQTQQRAVQEAIQVKLNEFEQWITHYQAAFNNLEATQLASLLQEISTQMDLGPPSYVPA
modifications: left off: small tags and cut ends
notes: FLAG-tagged truncated human Atr-2 containing the putative kinase domain, expressed from pCIneoFLAGATR2 in 293T cells
kinase activity: phosphorylation of histone H1 (histone H1): did not phosphorylate | kinase activity: phosphorylation of exogenous myelin basic protein substrate (myelin basic protein): able to phosphorylate | kinase activity: phosphorylation of the Atr-2 protein itself (Atr-2 protein): able to phosphorylate | kinase activity: phosphorylation of PHAS-1 (PHAS-1): did not phosphorylate
